From US20170320960A1 (AbbVie / Abbott, published 2017)

T1: hMFI2 Tf-like Domain 2 (TLD2), amino acids 366-709, displayed on yeast (human, UniProt P08582 366-709)
T1 construct: also called TFLD2; transferrin-like domain 2
T1 sequence: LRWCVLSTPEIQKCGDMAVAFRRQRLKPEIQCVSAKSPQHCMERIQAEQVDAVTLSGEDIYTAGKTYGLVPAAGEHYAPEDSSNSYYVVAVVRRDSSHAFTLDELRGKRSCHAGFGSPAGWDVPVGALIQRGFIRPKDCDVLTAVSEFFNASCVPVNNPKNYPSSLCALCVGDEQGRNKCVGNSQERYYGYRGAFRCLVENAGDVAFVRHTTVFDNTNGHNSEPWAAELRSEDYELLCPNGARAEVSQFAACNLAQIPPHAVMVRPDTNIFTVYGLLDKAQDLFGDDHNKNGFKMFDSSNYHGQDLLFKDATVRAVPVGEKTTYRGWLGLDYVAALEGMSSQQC

T2: hMFI2 Tf-like Domain 1 (TLD1), amino acids 20-357, displayed on yeast (human, UniProt P08582 20-357)
T2 construct: also called TFLD1
T2 sequence: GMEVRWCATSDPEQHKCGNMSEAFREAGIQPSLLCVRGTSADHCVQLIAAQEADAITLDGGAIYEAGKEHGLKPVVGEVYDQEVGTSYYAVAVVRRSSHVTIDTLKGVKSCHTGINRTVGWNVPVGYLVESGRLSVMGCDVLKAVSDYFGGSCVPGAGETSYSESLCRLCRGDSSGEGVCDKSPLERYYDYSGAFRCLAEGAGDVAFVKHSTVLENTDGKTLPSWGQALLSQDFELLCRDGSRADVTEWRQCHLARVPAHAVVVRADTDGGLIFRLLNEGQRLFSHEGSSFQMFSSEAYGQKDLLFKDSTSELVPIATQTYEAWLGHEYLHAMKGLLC

B1: SC57.32 (antibody, V domains shown)
VH: QVQLQQSGAELMKPGASVKISCKATGYTFSNYRIEWIKQRPGHGLEWIGEILPRGGNTNYNEKFKGKATFTADTSSNTAYMQLTSLTSEDSAVYYCARDDGYYGRFAYWGQGTLVTVSA
VL: DIQMTQTTSSLSASLGDRVTISCRASQDISNYLNWYQQKPDGTVKLLIFYTSRLHSGVPSRFSGSGSGTDYSLTISNLEQEDFATYFCQQGNTLPPTFGGGTKLEIK
B2: SC57.37 (antibody, V domains shown)
VH: EIQLQQSGPEMVKPGASVKVTCKASGYSFTDFNMHWMKQSHGKSLEWIGYIDPYKGGISYNQKFKGRATLTVDKSSSTAFMHLNSLTSDDSAVYYCARDYYGSRFPYYFDYWGQGTTLTVSS
VL: DVVMTQTPLSLPVSLGDQASISCRSSQSLVHSNGNTYLHWYLQKPGQSPKLLIYRVSNRFSGVPDRFSGSGSGTDFTLKISRVEAEDLGVYLCSQSTHVPLTFGAGTKLELK
B3: SC57.31 (antibody, V domains shown)
VH: QVHLKESGPGLVAPSQSLSITCTVSGFSLTTYGVHWVRQPPGKGLEWLGVIWAGGSTKYNSAFMSRLSISKDNSKTQVLLKMNSLQTDDTAMYYCARVASHGSSSWFAYWGQGTLVTVSA
VL: DIVLTQSPATLSVTPGDSVSLSCRASQSVGNSLHWYQQKSHESPRLLIKYASQSISGIPSRFSGSGSGTDFTLSINSVETEDFGMYFCQQSDSWPLTFGTGTKLELK
B4: SC57.52 (antibody, V domains shown)
VH: QVQLKQSGPGLVQPSQSLSITCTVSGFSLSSYGVHWVRQSPGKGLEWLGVIWSGGNTDYNAAFISRLSISKDNSKSQVFFKMNSLQADDTAIYYCARRNNSAWFAYWGQGTLVTVSA
VL: DIVLTQSPATLSVTPGDSVSLSCRASQGISNNLHWYQQKSHESPRLLIKYASQSISGIPSRFSGSGSGTDFALSINSVETEDFGMFFCQQSNSWPLTFGAGTKLELK
B5: SC57.55 (antibody, V domains shown)
VH: QVQLKQSGPGLVQPSQSLSITCTVSGFSLSSYGVHWVRQSPGKGLEWLGVIWSGGNTDYNAAFISRLSISKDNSKSQVFFKMNSLQADDTAIYYCARRNNSAWFAYWGQGTLVTVSA
VL: DIVLTQSPATLSVTPGDSVSLSCRASQGISNNLHWYQQKSHESPRLLIKYASQSISGIPSRFSGSGSGTDFALSINSVETEDFGMFFCQQSNSWPLTFGAGTKLELK
B6: hSC57.5 (antibody, human IgG1, kappa, V domains shown)
VH: EVQLVQSGAEVKKPGESLKISCKGSGYSFTDYYLHWVRQMPGKGLEWMGRINPYNGATSYNQIFKDQVTISADKSISTAYLQWSSLKASDTAMYYCARGGDYDFPWYWGQGTTVTVSS
VL: DIQMTQSPSSLSASVGDRVTITCKASQDVYAAVAWYQQKPGKAPKLLIYWASTRHAGVPSRFSGSGSGTDFTLTISSLQPEDFATYYCQQHYRTPWTFGQGTKVEIKR
notes: also called humanized SC57.5
B7: hSC57.32 (antibody, human IgG1, kappa, V domains shown)
VH: QVQLVQSGAEVKKPGASVKVSCKASGYTFTNYRIEWVRQAPGQGLEWMGEILPRGGNTNYNEKFKGRVTFTADTSTSTAYMELRSLRSDDTAVYYCARDDGYYGRFAYWGQGTLVTVSS
VL: DIQMTQSPSSLSASVGDRVTITCRASQDISNYLNWYQQKPGKAPKLLIYYTSRLHSGVPSRFSGSGSGTDYTLTISSLQPEDFATYYCQQGNTLPPTFGGGTKVEIKR
B8: hSC57.43 (antibody, human IgG1, kappa, V domains shown)
VH: QVQLVESGGGVVQPGRSLRLSCAASGFTFGSYTMSWVRQAPGKGLEWVAYISNGGYVTYYPDTVKGRFTISRDNSKNTLYLQMNSLRAEDTAVYYCARGYDWYFDVWGQGTTVTVSS
VL: DIVMTQSPDSLAVSLGERATINCRSSQSLVHSNGNTYLHWYQQKPGQPPKLLIYKVSNRFSGVPDRFSGSGSGTDFTLTISSLQAEDVAVYYCSQSTHVPLYTFGGGTKVEIKR
B9: SC57.1 (antibody, V domains shown)
VH: QVQLKQSGPGLVQPSQSLSITCTVSGFSLTDYGVHWVRQSPGKGLDWLGVIWSGGNTDYNAAFISRLSISKDNSKSQIFFEMNSLQDTDTAIYYCARQLHYYGPFAYWGQGTLVTVSA
VL: QIVLTQSPAIMSASPGEKVTMTCSASSSVSYMHWYQQKSGTSPKRWIYDTSKLASGVPVRFSGSGSGTSYSLTISSIEADDAATYYCQQWSRTPPTFGGGTKLEIK
B10: SC57.10 (antibody, V domains shown)
VH: QVQLQQSGAELMKPGASVKISCKATGYTFSNYRIEWIKQRPGHGLEWIGEILPRGGNTNYNEKFKGKATFTADTSSNTAYMQLTSLTSEDSAVYYCARDDGYYGRFAYWGQGTLVTVSA
VL: DIQMTQTTSSLSASLGDRVTISCRASQDISNYLNWYQQKPDGTVKLLIFYTSRLHSGVPSRFSGSGSGTDYSLTISNLEQEDFATYFCQQGNTLPPTFGGGTKLEIK
B11: SC57.11 (antibody, V domains shown)
VH: QVQLQQSGAELMKPGASVKISCKATGYTFSNYRIEWMKQRPGHGLEWIGEILPRTGNTNYNENFKGKATFTADTSSNTAYIQLSSLTSEDSAVYYCARDDGYYGRFAYWGQGTLVTVSA
VL: DIQMTQTTSSLSASLGDRVTISCRASQDISSYLNWYQQKPDGTVKLLIYYTSRLHSGVPSRFSGSGSGTDYSLTINNLEQEDIATYFCQQGNTLPPTFGGGTKLEIK
B12: SC57.17 (antibody, V domains shown)
VH: EVQLQQSGAELVKPGASVKLSCTASGFNIKDTYMHWVKQRPEQGLEWIGRIDPANVNTSDDPKFQGKATIAADTSSNTVYLQLSSLTSEDTAVYYCARDYRYDGYYYAMDYWGQGTSVTVSS
VL: DIQMTQTTSSLSASLGDRVTISCSASQDINNYLNWYQQKPDGTVKLLIHYTSSLHSGVPSRFSGSGSGTDYSLTISNLEPEDIATYYCQQYSKVPWTFGGGTKLEIK
B13: SC57.9 (antibody, V domains shown)
VH: QVQLQQSGPELMKPGASVKISCKATGYTFSSYWIEWVKQRPGHGLEWIGEILPGSGSTEYNEKFKGKATFTADTSSNTAYMQLSSLTSEDSDVYYCARKRYGTMDYWGQGTSVTVSS
VL: QIVLTQSPAIMSASPGEKVTITCSASSSVSYMHWFQQKPGTSPKLWIYTTSNLASGVPARFSGSGSGTSYSLTISRMEAEDAATYYCQQRSSFPPTFGSGTKLEIK
B14: SC57.4 (antibody, V domains shown)
VH: EIQLQQSGPEMVKPGASVKVTCKASGYSFTDFNMHWMKQSHGKSLEWIGYIDPYKGGISYNQKFKGRATLTVDKSSSTAFMHLNSLTSDDSAVYYCARDYYGSRFPYYFDYWGQGTTLTVSS
VL: DVVMTQTPLSLPVSLGDQASISCRSSQSLVHSNGNTYLHWYLQKPGQSPKLLIYRVSNRFSGVPDRFSGSGSGTDFTLKISRVEAEDLGVYLCSQSTHVPLTFGAGTKLELK
B15: SC57.25 (antibody, V domains shown)
VH: EIQLQQSGPEMVKPGASVKVTCKASGYSFTDFNMHWMKQSHGKSLEWIGYIDPYKGGISYNQKFKGRATLTVDKSSSTAFMHLNSLTSDDSAVYYCARDYYGSRFPYYFDYWGQGTTLTVSS
VL: DVVMTQTPLSLPVSLGDQASISCRSSQSLVHSNGNTYLHWYLQKPGQSPKLLIYRVSNRFSGVPDRFSGSGSGTDFTLKISRVEAEDLGVYLCSQSTHVPLTFGAGTKLELK
B16: SC57.18 (antibody, V domains shown)
VH: EIQLQQSGPEMVKPGASVKVTCKASGYSFTDFNMHWMKQSHGKSLEWIGYIDPYKGGISYNQKFKGRATLTVDKSSSTAFMHLNSLTSDDSAVYYCARDYYGSRFPYYFDYWGQGTTLTVSS
VL: DVVMTQTPLSLPVSLGDQASISCRSSQSLVHSNGNTYLHWYLQKPGQSPKLLIYRVSNRFSGVPDRFSGSGSGTDFTLKISRVEAEDLGVYLCSQSTHVPLTFGAGTKLELK
B17: SC57.28 (antibody, V domains shown)
VH: EIQLQQSGPEMVKPGASVKVTCKASGYSFTDFNMHWMKQSHGKSLEWIGYIDPYKGGISYNQKFKGRATLTVDKSSSTAFMHLNSLTSDDSAVYYCARDYYGSRFPYYFDYWGQGTTLTVSS
VL: DVVMTQTPLSLPVSLGDQASISCRSSQSLVHSNGNTYLHWYLQKPGQSPKLLIYRVSNRFSGVPDRFSGSGSGTDFTLKISRVEAEDLGVYLCSQSTHVPLTFGAGTKLELK
B18: SC57.5 (antibody, V domains shown)
VH: EVQLQQSGPELVKPGASVKISCKASGYSFTDYYLHWVKQSHVKSLEWIGRINPYNGATSYNQIFKDKASLTVDKSSSTAYMDLHSLTSEDSAVYYCARGGDYDFPWYWGQGTTLTVSP
VL: DIVMTQSHKFMSTSVGDRVSITCKASQDVYAAVAWYHQKPGQSPKLLIYWASTRHAGVPDRFTGSGSGTDYTLTISSVQAEDLALYYCQQHYRTPWTFGGGTKLEIK

Target: T1, hMFI2 Tf-like Domain 2 (TLD2), amino …
Experiment: flow cytometry on yeast displaying hMFI2 domains

Binding result, binds:
B1
B2
B3
B4
B5
B6
B7
B8

Target: T2, hMFI2 Tf-like Domain 1 (TLD1), amino …
Experiment: flow cytometry on yeast displaying hMFI2 domains

Binding result, binds:
B9

Target: T1, hMFI2 Tf-like Domain 2 (TLD2), amino …
Experiment: flow cytometry on yeast displaying hMFI2 domains
Remark: another data set of the same source

Binding result, binds:
B10
B11
B12
B13
B14
B15
B16
B17
B18
